Results as given in patent US20190144863, “MODULATING THE CELLULAR STRESS RESPONSE” (The General Hospital Corporation, published 2019).

B1: B2 RNA domain III (ssRNA)
RNA: CGUAACGAGAUCUGACUCCCUCUUCUGGAGUGUCUGAAGACA
modifications: [none]
B2: B2 RNA full length (ssRNA)
RNA: GGGGCUGGUGAGAUGGCUCAGUGGGUAAGAGCACCCGACUGCUCUUCCGAAGGUCCGGAGUUCAAAUCCCAGCAACCACAUGGUGGCUCACAACCAUCCGUAACGAGAUCUGACUCCCUCUUCUGGAGUGUCUGAAGACAGCUACAGUGUACUUACAUAUAAUAAAUAAAUAAAUCUUUAAAAAAAAA
B3: B2 RNA domain I (ssRNA)
RNA: GGGGCUGGUGAGAUGGCUCAGUGGGUAAGAGCACCCGACUGCUCUUCCGAAGGUCCGGAGUUCAAAUCCCAG
modifications: [none]
B4: B2 RNA domain I+II (ssRNA)
RNA: GGGGCUGGUGAGAUGGCUCAGUGGGUAAGAGCACCCGACUGCUCUUCCGAAGGUCCGGAGUUCAAAUCCCAGCAACCACAUGGUGGCUCACAACCAUCCGUAACG
modifications: [none]

Experiments:
EZH2 [1] = target: T1, EZH2 (UniProt Q61188 Q61188:1-746); assay: filter; double-filter binding, same buffer with yeast tRNA; extremely low affinity; conditions: label: radiolabelled (cpm)
EZH2 [2] = target: T1, EZH2; assay: FP filter; double-filter binding; 50 mM Tris pH 8.0, 100 mM NaCl, 5 mM MgCl2, 50 ng/ul yeast tRNA, 30 C; conditions: folded; critical region nt 81-131

T1 sequence (Q61188 whole entry, one chain of several): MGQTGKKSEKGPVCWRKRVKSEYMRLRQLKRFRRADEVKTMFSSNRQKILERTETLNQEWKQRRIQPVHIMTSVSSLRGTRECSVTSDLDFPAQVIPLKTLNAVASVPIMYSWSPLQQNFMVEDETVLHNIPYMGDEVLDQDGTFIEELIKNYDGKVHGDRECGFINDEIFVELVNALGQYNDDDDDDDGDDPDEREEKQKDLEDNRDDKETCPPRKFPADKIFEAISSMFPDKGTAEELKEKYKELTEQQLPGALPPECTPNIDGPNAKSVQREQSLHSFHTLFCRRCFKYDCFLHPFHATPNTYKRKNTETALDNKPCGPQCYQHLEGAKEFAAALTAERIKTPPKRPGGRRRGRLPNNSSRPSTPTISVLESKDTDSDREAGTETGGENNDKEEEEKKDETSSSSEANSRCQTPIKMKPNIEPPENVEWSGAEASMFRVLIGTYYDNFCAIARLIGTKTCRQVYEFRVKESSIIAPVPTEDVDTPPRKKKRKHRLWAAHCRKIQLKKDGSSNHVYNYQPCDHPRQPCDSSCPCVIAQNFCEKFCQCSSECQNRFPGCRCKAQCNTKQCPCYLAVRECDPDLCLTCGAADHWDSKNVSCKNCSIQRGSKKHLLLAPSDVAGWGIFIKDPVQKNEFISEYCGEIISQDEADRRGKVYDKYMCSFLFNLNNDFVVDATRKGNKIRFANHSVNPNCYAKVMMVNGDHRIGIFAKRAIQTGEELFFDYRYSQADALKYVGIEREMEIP

Row | Binder | Kd (EZH2 [1]) | Kd (EZH2 [2])
1 | B1 | > 3 µM | 
2 | B2 |  | 0.423 µM
3 | B3 | > 3 µM | 
4 | B4 | > 3 µM | 
